Data published in patent US20110165605A1.
Numbering of substitutions follows the chain as printed.

T1: α-lactalbumin (Sigma Co.)
T1 sequence (P00711 20-142, species assumed, looked up): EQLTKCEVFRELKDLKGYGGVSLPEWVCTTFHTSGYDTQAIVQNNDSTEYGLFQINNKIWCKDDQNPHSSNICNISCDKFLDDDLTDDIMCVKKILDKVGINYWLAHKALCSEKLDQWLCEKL

B1: mature form of wild-type protein-glutaminase derived from the Chryseobacterium proteolyticum 9670 strain (protein)
chain: LASVIPDVATLNSLFNQIKNQSCGTSTASSPCITFRYPVDGCYARAHKMRQILMNNGYDCEKQFVYGNLKASTGTCCVAWSYHVAILVSYKNASGVTEKRIIDPSLFSSGPVTDTAWRNACVNTSCGSASVSSYANTAGNVYYRSPSNSYLYDNNLINTNCVLTKFSLLSGCSPSPAPDVSSCGF
B2: mature form of the protein-glutaminase mutant Tyr82Ser (protein)
chain: B1 chain with Y82S

Columns and labels:
[1] = molecular target: casein (Wako Pure Chemical Industries, Ltd.)
[2] = molecular target: T1, α-lactalbumin (Sigma Co.)
[3] = molecular target: β-lactoglobulin (Sigma Co.)
[4] = molecular target: wheat gluten (Viten, ROQUETTE Co.)
[5] = molecular target: separated soybean protein (Fuji Pro F, FUJI OIL CO., LTD.)
[6] = molecular target: separated soybean protein (Fuji Pro F, FUJI OIL CO., LTD.); assay: cell-based or functional assay
[7] = molecular target: wheat gluten (Viten, ROQUETTE Co.); assay: cell-based or functional assay
[8] = molecular target: casein (Wako Pure Chemical Industries, Ltd.); assay: cell-based or functional assay

| Binder | Relative activity (%) [1] [%] | Relative activity (%) [2] [%] | Relative activity (%) [3] [%] | Relative activity (%) [4] [%] | Relative activity (%) [5] [%] | Ratio (Y82S/Wild-type) [2] | Ratio (Y82S/Wild-type) [3] | Ratio (Y82S/Wild-type) [6] | Ratio (Y82S/Wild-type) [7] | Ratio (Y82S/Wild-type) [8] |
| --- | --- | --- | --- | --- | --- | --- | --- | --- | --- | --- |
| B1 | 1020 | 100 | 61 | 2620 | 127 | – | – | – | – | – |
| B2 | 701 | 100 | 309 | 4270 | 531 | 1 | 5 | 4.2 | 1.6 | 0.7 |
